Patent publication US20170088602A1 (Bristol-Myers Squibb, published 2017)

T1: human Activin A (R&D Systems) (human, UniProt P08476 311-426)
T1 sequence (looked up): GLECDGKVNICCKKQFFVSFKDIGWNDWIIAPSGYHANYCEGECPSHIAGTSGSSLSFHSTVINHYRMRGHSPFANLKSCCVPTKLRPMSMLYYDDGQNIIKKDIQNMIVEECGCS

T2: human BMP-11 (GDF-11; R&D Systems) (human, UniProt O95390 299-407)
T2 sequence (looked up): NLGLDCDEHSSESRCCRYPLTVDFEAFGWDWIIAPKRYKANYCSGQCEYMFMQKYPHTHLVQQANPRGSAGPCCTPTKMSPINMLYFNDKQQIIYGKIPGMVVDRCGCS

T3: human myostatin (mature, recombinant; R&D Systems) (human, UniProt O14793 267-375)
T3 sequence: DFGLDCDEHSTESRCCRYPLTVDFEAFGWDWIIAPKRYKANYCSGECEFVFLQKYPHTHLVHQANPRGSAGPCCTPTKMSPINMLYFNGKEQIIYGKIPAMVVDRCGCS

B1: ATI-1267 [N-ethylmaleimide] (designed binder)
chain: MGVSDVPRDLEVVAATPTSLLISWTLPHAGRAHYYRITYGETGGNSPVQEFTVPGRGVTATISGLKPGVDYTITVYAVTVTTTSVILYKPISINYRTEGSGCHHHHHH
modifications: N-ethylmaleimide on the Cys of the EGSGC tail
notes: cysteine mutant of 2525_D02
B2: 3006_A10 (designed binder)
chain: MGVSDVPRDLEVVAATPTSLLISWDAPGGLARYYRITYGETGGNSPVQEFTVIGRGSTATISGLKPGVDYTITVYAVTIDRDGVNHFAPISINYRTEIDKPSQHHHHHH
B3: 3115_D04 (designed binder)
chain: MGVSDVPRDLEVVAATPTSLLISWDAPRGLARYYRITYGETGGNSPVQEFTVFGRGTTATISGLKPGVDYTITVYAVTIDRDGTRSFDPISINYRTEIDKPSQHHHHHH
B4: 3116_A07 (designed binder)
chain: MGVSDVPRDLEVVAATPTSLLISWDAPKGLARYYRITYGETGGNSPVQEFTVVGRGNTATISGLKPGVDYTITVYAVTIFRDGPVTWDPISINYRTEIDKPSQHHHHHH
B5: 3116_H06 (designed binder)
chain: MGVSDVPRDLEVVAATPTSLLISWDAPAGLARYYRITYGETGGNSPVQEFTVVGRGNTATISGLKPGVDYTITVYAVTIFRDGVVNYGPISINYRTEIDKPSQHHHHHH
B6: ATI-1275 [N-ethylmaleimide] (designed binder)
chain: MGVSDVPRDLEVVAATPTSLLISWYLPYPAHMNYYRITYGETGGNSPVQEFTVPGRGLTATISGLKPGVDYTITVYAVTLTKSQILHHRPISINYRTEGSGCHHHHHH
modifications: N-ethylmaleimide on the Cys of the EGSGC tail
notes: cysteine mutant of 2524_D09
B7: ATI-1277 [N-ethylmaleimide] (designed binder)
chain: MGVSDVPRDLEVVAATPTSLLISWSLPYAGHLNYYRITYGETGGNSPVQEFTVPGRGVTATISGLKPGVDYTITVYAVTLTKSQLIHYMPISINYRTEGSGCHHHHHH
modifications: N-ethylmaleimide on the Cys of the EGSGC tail
notes: cysteine mutant of 2525_D05
B8: 2987_H07 (designed binder)
chain: MGVSDVPRDLEVVAATPTSLLISWTLPHAGRAHYYRITYGETGGNSPVQEFTVPGRGVTATISGLKPGVDYTITVYAVTVTTTKVIHYKPISINYRTEIDKPSQHHHHHH

Experiments:
[1] = biological target: T1, human Activin A (R&D Systems); assay: cell-based or functional assay
[2] = biological target: T2, human BMP-11 (GDF-11; R&D Systems); assay: cell-based or functional assay
[3] = biological target: T3, human myostatin (mature, recombinant; …); assay: cell-based or functional assay
[4] = biological target: T2, human BMP-11 (GDF-11; R&D Systems); assay: SPR format A, 25C
Description: (§1) Anti-human Fc antibody (Biacore/GE) was immobilized on a Biacore CM5 chip via NHS/EDC coupling according to the manufacturer's instructions. […] A concentration range of anti-myostatin Adnectin was applied across all flow cells in HBSP running buffer. Regeneration of the chip surface between cycles was accomplished with two 30 second pulses of 3M MgCl₂. Kinetic traces of reference-subtracted sensorgrams were fit to a 1:1 binding model using Biaevaluation software.

[5] = biological target: T3, human myostatin (mature, recombinant; …); assay: SPR format A, 25C
Description: as §1

[6] = biological target: T3, human myostatin (mature, recombinant; …); assay: competitive HTRF (1889E01/myostatin/ActRIIb-Fc sandwich)
Description: An HTRF assay was used to measure the binding affinities of anti-myostatin Adnectins to myostatin. […] The Eu-W 1024 labeled Streptavidin is used to bind biotinylated 1889E01. […] In the presence of a competitive Adnectin, the HTRF signal decreases.

[7] = biological target: T3, human myostatin (mature, recombinant; …); assay: cell-based or functional assay; remark: listed apart in the source

ARE-luciferase IC50 [1]	ARE-luciferase IC50 [2]	ARE-luciferase IC50 [3]	Kd [4]	Kd [5]	IC50 [6]	pSmad2 % inhibition at 10 nM [7]	pSmad2 IC50, 4-point [7]	Binder
644 nM	0.5 nM	0.06 nM	0.065 nM	0.057 nM	0.12 nM			B1
> 2000 nM	2 nM	0.08 nM			0.15 nM	51%		B2
> 1000 nM	3.6 nM	0.16 nM			0.2 nM		60 pM	B3
> 1000 nM	0.5 nM	0.04 nM			0.11 nM		60 pM	B4
> 1000 nM	1.6 nM	0.1 nM			0.13 nM		60 pM	B5
19 nM	0.14 nM	0.03 nM	0.15 nM	0.15 nM	0.19 nM			B6
2000 nM	1.18 nM	0.14 nM	0.14 nM	0.16 nM	0.38 nM			B7
> 400 nM	5.5 nM	0.02 nM	2.25 nM	0.99 nM				B8
